Test results as given in publication PMC4877045.

Molecular target: cleaved human TNFα (human)
Experiment: SEC; SEC-HPLC on an analytic TSK G3000SWXL column, PBS mobile phase, 1 ml/min, OD280; molecular weight estimated from retention time against a protein size standard; self-association (trimer)

stoichiometry N: 3
Substance: cleaved human TNFα (ligand)
